The target of the experiment is Hen eggwhite lysozyme (HEWL), control (no iodoacetamide), in 50 mM phosphate buffer at pH 12.2 (hen) (UniProt P00698). The experiment in a line: single-molecule force spectroscopy (AFM pulling); HEWL aggregates formed after 4 days of incubation at pH 12.2, 120 uM in 50 mM phosphate buffer, on a gold coated coverslip; pulling speed 400 nm/s.

As to “Hen eggwhite lysozyme (HEWL), control (no iodoacetamide), in 50 mM phosphate buffer at pH 12.2 (from UniProt P00698 19-147) (enzyme)”, the average detachment force turned out to be 1000 pN and the mechanical stability (detachment peak force) lay in the range of 300 to 2600 pN.

Values taken from paper PMC3925087.
